These are literature values, as cited in patent US20190010499.

What is called Kd is the concentration at which binding is half-saturated.

This series has as its system IL-6. Particulars: binding constant used for modeling; measurement method not stated; nucleic acid type not stated; cited from earlier work.

As to Anti-IL-6 aptamer #1 (SL1025), the Kd was 0.233 nM. Turning to Anti-IL-6 aptamer #2 (SL1032), the equilibrium dissociation constant (Kd) was 1.6 nM.
